From US20240218057A1 (ROCKEFELLER UNIVERSITY, published 2024)

Molecular target: T1, SARS-COV-2 RBD (SARS-COV-2, UniProt P0DTC2 319-539)
T1 construct: also called WT RBD
Assay: ELISA, RBD coated

| Binder | EC50 |
| --- | --- |
| C841 (antibody, V domains shown, IgG; V domains only) VH: EVQLVESGGGLVQPGGSLRLSCAASGFTFSIFSMNWVRQAPGKGLEWISYISSSSGSRHYADSVKGRFTISRDNAKNSLYLQMNNLRDEDTAMYYCAREAHDGALTGYGDYLNWFDPWGQGVLVTVSS VL: SYELTQPPSVSVAPGKTARIPCGGDSVGSKSVHWYQQKSGQAPVLVIHSDSDRPSGIPERFSGSNSGNTATLTITGVAAGDEADYYCHVWDTIGDRFYWVFGGGTKLTVL | 3.15 ng/mL |
| C860 (antibody, V domains shown, IgG; V domains only) VH: not shown VL: SYELTQPPSVSVAPGKTARITCGGNSIGSKSVHWYQQKPGQAPVLVIYYDSDRPSGIPERFSGSNSGNTATLTISRVEAGDEADFHCQVWDSGWVFGGGTKLTVL | 2.61 ng/mL |
| C852 (antibody, V domains shown, IgG; V domains only) VH: QVQLVQSGAEVKKPGASVKVSCKASGYIFTGFYMHWVRQAPGQGPEWMGWINPNSGGTNYAQKFQGRVTMTRDTSISTAYMELSRLRSDDTALYYCARGGQDELTGTFDVWGQGTMVTVSS VL: SYELTQPPSVSLAPGKTASITCGGDSIGSKSVHWYQQRPGQAPILVIYYDGDRPSGIPERFSGSNSGNTATLTISRVEAGDEADYYCQVWDGGWVFGGGTKLTVL | 4.59 ng/mL |
| C842 (antibody, V domains shown, IgG; V domains only) VH: QVQLVESGGGVVQPGRSLRLSCAASGFTFSTYAIHWVRQAPGKGLEWVAAISYDGSNKYYSDSVKGRLFISRDNSNNTVYLQMNNLRAEDTAIYYCARDGTIVTLVRGVMGPPFDYWGQGTLVTVSS VL: not shown | 3.01 ng/mL |
| C855 (antibody, V domains shown, IgG; V domains only) VH: QVQLVESGGGVVQPGRSLRLSCAASGFAFSTYGMHWVRQTPGKGLAWVAAISYDGRNTYYGDSVKGRFTITRDNSKNTLYLQLNSLRDEDTALYYCARDATMITLVRGIMGPPFDHWGQGSLVTVSS VL: not shown | 2.73 ng/mL |
| C859 (antibody, V domains shown, IgG; V domains only) VH: QVQLVQSGAELKKPGASVRVSCKASGYTFTDYYIHWVRQAPGQGFEWMGWINPDSGGTNYPQNFQGRVTMTRGTSISTAYVELTRLRFDDTAVYYCARTSSPHSSSTGDLDYWGQGTLVTVS VL: SYELTQSPSVSVAPGKTARITCGGRDIGSKSVHWYQQRPGQAPVLVISYDNDRPSGIPERFSGSNSGNTATLTISRVEAGDEADYYCQVWDGTGDHPGWVFGGGTRLTVL | 2.75 ng/mL |
| C849 (antibody, V domains shown, IgG; V domains only) VH: QVQLVQSGAEVKKPGASVKVSCRASGYTFTDHYIHWVRQAPGQGLEWMGWINPNSGDTNYPQKFQGRVTMARDTSISTAHMELRRLKSDDTAVYYCARTSSPHSSSTGDFDSWGQGTLVTVSS VL: SYELTQPPSVSVAPGKTARITCGGDDIGSKSVHWYQQKSGQAPVLVIHDDSDRPSGIPERFSGSNSGNTATLTISRVEAGDEADYYCQVWDFTGDHPGWVFGGGTKLTVL | 3.64 ng/mL |
| C853 (antibody, V domains shown, IgG; V domains only) VH: QVQLQESGPGLVKASQTLSLTCTVSGGSFRSGGYYYNWIRQHPGKGLEWIGYIFYTGVTYYNPSLKSRVSISVDTSKNQLSLNLTSVTAADTAVYYCARGSYSDYNGGWDYWGRGTLVTVS VL: QSALTQPPSASGSPGQSVTISCIGTSSDVGGYNYVSWYQHHPGKAPKLIIYEVSKRPSGVPDRFSGSKSGNTASLTVSGLQADDEADYYCSSYAGSNNWVFGGGTKLTV | 2.3 ng/mL |
| C839 (antibody, V domains shown, IgG; V domains only) VH: QVQLQESGPGLVKPLDTLSLTCTVSGASISSYYWSWIRQPAGKGLEWIGLIYSSGSTTYNPSLKSRVTMSVDTSKKQFSLNLSSMTAADTAVYYCARGSALNWKSIGYFDSWGQGTLVTV VL: DIQMTQSPSSLSASIRDRVTITCQASQDISNYLNWYQQKAGEAPKLLIYDASSLETGVPSRFSGSGSGTEFTLTISSLQPEDIATYYCQQYDHVPLTFGGGTKVEIK | 4.38 ng/mL |
| C840 (antibody, V domains shown, IgG; V domains only) VH: QVQLVESGGGVVQPGRSLRLSCEASGFTFTAYAMHWLRQAPGKGLEWVAVILNDGSNKLYADSVKGRFTVSRDNSKNMLYLQVNSLRVDDTAVYYCARDGSVDTLMVTWFDYWGQGTLVTVSS VL: DIQMTQSPSSLSASVGDRVTITCRASQSVNNYLNWYQQKPGQAPKLLIYAASSLQSGVPLRFSGSGSGTDFALTITSLHTEDFATYYCQQSYNTPPWTFGPGTKVEIK | 1.36 ng/mL |
| C846 (antibody, V domains shown, IgG; V domains only) VH: QVQLVESGGGVFQPGRSLRLSCAASGFNFRTYAMHWVRQAPGKGLEWVAVILDDGSGKFYADSVKGRFTVSRDNSKHTLYLQMTSLSAEDTAIYFCARDQGTATTYFDHWGQGTLVTVSS VL: DIQMTQSPSSLSASVGDRVTITCRASQSIRTFLSWYQQKAGKAPKLLIYTASSLQNGVPSRFSGSGSGTDFTLTISSLQPEDFATYYCQQSYETPPWTFGQGTKVEIK | 3.48 ng/mL |
| C856 (antibody, V domains shown, IgG; V domains only) VH: QVQLVESGGGVVQPGRSLRLSCAASGFTFSSYGMHWVRQAPGKGLEWVAVISYDGSNKYYADSVKGRFTISRDNSKNTLYLQMSSLRAEDTAVYYCAKQIGEYCSGGSCYQGSLDYWGQGTLVTVSS VL: not shown | 2.65 ng/mL |
| C843 (antibody, V domains shown, IgG; V domains only) VH: QVQLVESGGGVVQPGRSLRLSCAASGFTFSRYAMHWVRQAPGKGLEWVAVISYDGSNKYYATSLKGRCTISRDNSKNTLYLQMNSLRAEDTAVYFCAKQIGEYCSGGNCYQGSLDYWGQGTLVTVSS VL: DIQMTQSPSSLSASVGDRVTITCQASQDISNYLNWYQQKPGKAPKLLIYDASDLETGVPSTFSGSGSGTDFTLTISSLQPEDFATYYCQQYDIVPFTFGPGTKVDIK | 2.4 ng/mL |
| C844 (antibody, V domains shown, IgG; V domains only) VH: EVQLVESGGGLVKPGGSLRLSCVATGFSFSDAWMNWVRQAPGKGLEWVGRIRSEIADGTTDYAAPVKGRFTISRDDARNTLYLQMNSLEIEDTAVYYCTTGVVVVVSSSPDDAFDVWGQGTMVTVSS VL: DIQMTQSPSSLSASVGDRVTITCRASQSIGHYLNWYQQKPGKAPKLLIYAASSLQSGVPSRFSGSGSGAGFTLTVNGLQPEDLATYYCQQYYTTPPTFGQGTKVEIK | 1.53 ng/mL |
| C848 (antibody, V domains shown, IgG; V domains only) VH: QVQLQESGPGLVKPSQTLSLTCTVSGGSISSGDYYWSWIRQPPGKGLEWIGYIYYTGITYYRPSLKSRVTISVDTSKNQFSLKLSSVTAADTAVFYCARVVRLWPRYFDSWGQGTLVTVSS VL: QSALTQPPSASGSPGQSVTISCTGTSSDVGTYDYVSWYQQHPGKAPKVIIYEVTKRPSGVPDRFSGSKSGNTASLTVSGLQAEDEAHYYCSTYAGSDNLEFGGGTKLTVL | 2.23 ng/mL |
| C857 (antibody, V domains shown, IgG; V domains only) VH: QVQLQESGPGLVKPSQTLSLTCTVSGGSISSGGYYWSWIRQHPGKGLEWIGYIYYSGSTYYNPSLESRVTISVDTSKNQFSLKLSSVTAADTAVYYCASGELSAFGELFPHDYWGQGTLVTVSS VL: EIVLTQSPATLSLSPGERATLSCRASQSVSTYLAWYQQKPGQAPRLLIYDASNRATGIPARFSGSGSGTDFTLTISSLEPEDFAVYYCQQRSNWLFTFGPGTKVDIK | 2.01 ng/mL |
| C845 (antibody, V domains shown, IgG; V domains only) VH: QVQLQESGPGLVKPSQTLSLTCTVSGASISSGEYYWSWVRQPPGKGLEWVGYIYYSGSTYYNPSLKSRVTISVDTSKNHFSLKLKSLTAADTAVYFCATGGLSAFGELFPHDKWGQGTLVTVSS VL: EIVLTQSPATLSLSPGERATLSCRASQSVGSDLAWYQQKPGQAPRLLIYDTSNRATGIPARFSGSGSGTDFTLTISSLDPADFAVYYCQQRTNWLFSFGPGTKVDIK | 1.5 ng/mL |
